Measured values taken from PMC7442955, “Biochemical and functional characterization of a meiosis-specific Pch2/ORC AAA+ assembly” (Life Science Alliance, 2020).

T1: 6xHis–Hop1 (budding yeast, UniProt P20050 1-605)
T1 construct: Hop1, HORMA domain protein, substrate of Pch2; source: E. coli BL21 RIPL, purified (TALON, heparin, SEC); not shown: 6xHis, N-terminal, kept
T1 sequence (looked up): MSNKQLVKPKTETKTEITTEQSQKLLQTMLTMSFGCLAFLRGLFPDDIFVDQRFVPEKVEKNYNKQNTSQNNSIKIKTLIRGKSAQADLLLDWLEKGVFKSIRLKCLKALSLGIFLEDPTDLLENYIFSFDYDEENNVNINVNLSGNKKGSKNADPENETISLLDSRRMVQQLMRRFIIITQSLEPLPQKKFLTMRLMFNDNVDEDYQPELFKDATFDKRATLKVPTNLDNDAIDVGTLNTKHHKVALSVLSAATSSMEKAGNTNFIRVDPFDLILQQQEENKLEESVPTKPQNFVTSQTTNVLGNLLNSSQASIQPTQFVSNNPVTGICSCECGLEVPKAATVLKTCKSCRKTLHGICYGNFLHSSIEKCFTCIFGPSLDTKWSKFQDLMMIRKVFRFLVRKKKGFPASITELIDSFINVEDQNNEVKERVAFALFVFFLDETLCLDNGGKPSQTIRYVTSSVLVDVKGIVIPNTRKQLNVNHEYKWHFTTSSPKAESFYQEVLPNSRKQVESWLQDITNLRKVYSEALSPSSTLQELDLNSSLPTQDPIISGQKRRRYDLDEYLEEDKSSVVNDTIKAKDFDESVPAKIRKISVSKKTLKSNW

T2: His–Orc1 (subunit of the insect cell–purified ORC) (budding yeast, UniProt P54784 1-914)
T2 construct: Orc1, budding yeast; Stood in the assays as a subunit of m16; source: Tnao38 insect cells, co-expressed with Orc2-6, purified as part of His–ORC
T2 sequence (looked up): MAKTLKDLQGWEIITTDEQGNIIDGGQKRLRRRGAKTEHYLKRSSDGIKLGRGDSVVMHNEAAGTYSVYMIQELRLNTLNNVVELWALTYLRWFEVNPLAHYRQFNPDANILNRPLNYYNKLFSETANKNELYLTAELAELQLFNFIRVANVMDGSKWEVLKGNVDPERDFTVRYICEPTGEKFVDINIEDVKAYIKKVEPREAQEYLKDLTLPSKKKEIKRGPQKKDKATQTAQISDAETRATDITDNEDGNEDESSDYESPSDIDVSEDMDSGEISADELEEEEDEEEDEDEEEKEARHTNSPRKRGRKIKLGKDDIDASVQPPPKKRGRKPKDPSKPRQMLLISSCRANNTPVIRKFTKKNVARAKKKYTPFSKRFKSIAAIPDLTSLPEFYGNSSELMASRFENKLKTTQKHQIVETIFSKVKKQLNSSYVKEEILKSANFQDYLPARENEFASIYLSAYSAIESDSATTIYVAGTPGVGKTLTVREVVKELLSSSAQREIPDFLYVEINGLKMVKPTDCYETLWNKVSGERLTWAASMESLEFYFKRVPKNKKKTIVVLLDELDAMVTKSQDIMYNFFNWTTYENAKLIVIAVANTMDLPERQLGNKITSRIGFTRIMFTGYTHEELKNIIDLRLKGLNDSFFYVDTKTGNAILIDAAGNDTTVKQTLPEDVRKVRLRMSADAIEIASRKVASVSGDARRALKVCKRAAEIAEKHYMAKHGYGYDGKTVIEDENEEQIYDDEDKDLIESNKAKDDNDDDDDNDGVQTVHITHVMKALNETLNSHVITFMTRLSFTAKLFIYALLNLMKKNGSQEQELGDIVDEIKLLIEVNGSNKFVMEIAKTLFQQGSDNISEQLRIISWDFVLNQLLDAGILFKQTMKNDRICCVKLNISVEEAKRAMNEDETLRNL

B1: His–MBP–Pch2 (natural protein, budding yeast, UniProt P38126 1-564, looked up)
chain: MSYIVDLQVRGSSLRVIKCMFREDEQISSLHSGSDSKQNSNKKLGEFLNLLKAVVKRKLESFPKDRLKTSIITGQELMREGQGSIEIKDPPTEAQQHLIRSLAKVLLHQFSSINGKVNTVNEGQDNLFLSLFVKKISIEQQSTSHVSIKLNFHEKINLGQHIDSILDSEETNESDTYHMGSVDEFIIYPFCCLEEQDELKNGSILSTEFDKIDLELDEDDGFEGETLNNCINSVGNFDIPLSKQTLNLVNISYLPGTTFEGQWESLYFGNNIKERLYSYATISLKIARFKQTGDSNQEDITTLITNNKLLLVHGPPGTGKTTLCKALCQKLSVRREFSDGSDTIDTNYKGIIIELSCARIFSKWFGESSKNISIVFKDIEELLKVNEGRGIFICLLIDEVEAIASSRTNLSSRNESTDGIRVVNTLLTQLDRLKKYHNFLALATSNLLDSLDDAFVDRADGVFYVGNPTAEGILHILKVCIEEMITSGIILFHARSTGVKFFNKYQDILRKIAIKCSTVDISGRTIRKLPLMCLSEYFRTFPVDDDEFVLALAMSARKLSAARK
notes: Pch2, budding yeast; from codon-optimized cDNA in a pLIB–His–MBP vector; Apparent hexamer by SEC, with a minor fraction that appears monomeric; also called purified Pch2; full-length Pch2; source: Tnao38 insect cells (baculovirus), purified (TALON, amylose, SEC); not shown: His, N-terminal, kept; MBP, N-terminal, kept

Columns and labels:
[1] = target: T3, His–ORC (His–Orc1, Orc2-6) purified from insect cells (budding yeast, UniProt P54784 1-914; P32833 1-620; P54790 1-616; P54791 1-529; P50874 1-479; P38826 …, a fraction of Orc6 phosphorylated (double band, collapsed by λ-phosphatase); sites not stated); assay: pull-down; His–MBP–Pch2 (1 μM as hexamer) or fragments (6 μM of 2-144) on amylose beads, 1 μM ORC added, 90 min on ice; 30 mM HEPES pH 7.5, 150 mM NaCl, 10 mM imidazole, 0.1% Tween-20, 10 mM MgCl2; Coomassie staining or Western blot (α-MBP, α-ORC); conditions: both partners purified
T3 construct: Orc1, budding yeast; Orc2, budding yeast; Orc3, budding yeast; Orc4, budding yeast; Orc5, budding yeast; Orc6, budding yeast; Total size about 414 kD as printed; also called His–Orc1-6; origin recognition complex; source: Tnao38 insect cells coinfected with two baculoviruses, purified (His-tag resin, SEC); copies: + + + + +
T3 sequence (P32833 whole entry, chain 2 of 4, the tested form may be a part): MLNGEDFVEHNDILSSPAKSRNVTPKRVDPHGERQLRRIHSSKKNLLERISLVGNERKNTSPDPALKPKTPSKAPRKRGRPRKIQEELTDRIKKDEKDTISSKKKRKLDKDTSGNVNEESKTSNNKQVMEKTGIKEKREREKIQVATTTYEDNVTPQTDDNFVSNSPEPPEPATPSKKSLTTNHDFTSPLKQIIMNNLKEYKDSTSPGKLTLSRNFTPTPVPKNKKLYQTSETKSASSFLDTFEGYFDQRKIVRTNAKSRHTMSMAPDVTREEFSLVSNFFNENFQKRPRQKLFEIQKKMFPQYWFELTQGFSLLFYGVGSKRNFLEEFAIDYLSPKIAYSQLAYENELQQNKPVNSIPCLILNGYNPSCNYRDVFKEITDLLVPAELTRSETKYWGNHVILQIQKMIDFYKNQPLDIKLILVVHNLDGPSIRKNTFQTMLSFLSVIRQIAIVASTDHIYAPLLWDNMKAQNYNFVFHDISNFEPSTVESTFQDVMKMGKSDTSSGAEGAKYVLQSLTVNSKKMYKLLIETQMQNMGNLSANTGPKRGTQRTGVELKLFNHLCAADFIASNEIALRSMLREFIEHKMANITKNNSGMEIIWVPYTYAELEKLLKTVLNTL
T3 sequence (P54790 whole entry, chain 3 of 4, the tested form may be a part): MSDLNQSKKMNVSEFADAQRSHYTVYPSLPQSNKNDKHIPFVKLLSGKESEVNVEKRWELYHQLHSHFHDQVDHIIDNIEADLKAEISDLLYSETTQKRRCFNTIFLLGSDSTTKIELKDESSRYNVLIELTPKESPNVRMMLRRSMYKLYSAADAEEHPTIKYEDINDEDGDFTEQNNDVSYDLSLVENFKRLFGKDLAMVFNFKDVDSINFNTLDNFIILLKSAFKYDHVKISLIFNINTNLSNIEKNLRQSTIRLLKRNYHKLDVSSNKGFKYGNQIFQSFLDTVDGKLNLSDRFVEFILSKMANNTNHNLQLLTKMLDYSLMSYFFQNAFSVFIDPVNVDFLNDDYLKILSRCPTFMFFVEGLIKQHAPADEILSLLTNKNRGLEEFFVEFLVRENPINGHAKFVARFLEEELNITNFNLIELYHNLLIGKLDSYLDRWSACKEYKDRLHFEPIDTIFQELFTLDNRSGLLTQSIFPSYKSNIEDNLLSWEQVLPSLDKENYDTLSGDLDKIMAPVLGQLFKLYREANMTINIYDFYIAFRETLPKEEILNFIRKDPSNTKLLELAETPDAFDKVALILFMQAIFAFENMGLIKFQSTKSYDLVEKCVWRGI
T3 sequence (P54791 whole entry, chain 4 of 4, the tested form may be a part): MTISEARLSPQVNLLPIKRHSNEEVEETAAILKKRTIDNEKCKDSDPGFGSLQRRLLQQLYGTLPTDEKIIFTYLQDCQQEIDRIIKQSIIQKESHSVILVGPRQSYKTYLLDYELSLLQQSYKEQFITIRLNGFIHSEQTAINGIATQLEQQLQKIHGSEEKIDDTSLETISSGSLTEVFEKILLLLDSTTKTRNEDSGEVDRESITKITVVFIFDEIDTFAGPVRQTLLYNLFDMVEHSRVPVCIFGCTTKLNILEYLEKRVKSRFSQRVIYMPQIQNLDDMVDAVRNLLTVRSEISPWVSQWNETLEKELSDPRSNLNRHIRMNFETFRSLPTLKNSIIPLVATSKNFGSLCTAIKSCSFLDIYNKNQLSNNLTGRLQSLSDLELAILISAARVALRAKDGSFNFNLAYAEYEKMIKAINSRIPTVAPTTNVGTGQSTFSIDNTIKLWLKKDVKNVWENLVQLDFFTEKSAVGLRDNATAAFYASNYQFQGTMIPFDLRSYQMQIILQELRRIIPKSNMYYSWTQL
T3 sequence (P38826 whole entry, chain 6 of 4, the tested form may be a part): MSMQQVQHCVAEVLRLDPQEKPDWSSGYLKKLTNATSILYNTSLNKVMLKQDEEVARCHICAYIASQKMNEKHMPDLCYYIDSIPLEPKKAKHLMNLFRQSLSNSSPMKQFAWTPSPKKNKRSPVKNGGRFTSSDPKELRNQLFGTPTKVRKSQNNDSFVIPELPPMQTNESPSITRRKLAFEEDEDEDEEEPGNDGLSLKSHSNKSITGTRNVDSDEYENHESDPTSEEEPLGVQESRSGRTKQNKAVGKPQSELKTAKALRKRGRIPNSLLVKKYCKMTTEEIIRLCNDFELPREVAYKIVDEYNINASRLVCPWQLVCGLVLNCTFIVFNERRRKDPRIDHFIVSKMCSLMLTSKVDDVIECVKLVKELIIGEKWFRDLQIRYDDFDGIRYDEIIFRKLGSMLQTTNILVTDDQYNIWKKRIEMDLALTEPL

6xHis–Hop1 = target: T1, 6xHis–Hop1; assay: pull-down; His–MBP–Pch2 (1 μM, as hexamer) on amylose beads, 6 μM Hop1 added, 90 min on ice; 50 mM Tris pH 7.5, 50 mM NaCl, 10 mM imidazole, 0.1% Tween-20, 1 mM MgCl2; with or without 200 μM ATP or ATPγS; Coomassie staining; conditions: both partners purified
[2] = target: T4, dephosphorylated His–ORC (λ-phosphatase treated) (budding yeast, UniProt P54784 1-914; P32833 1-620; P54790 1-616; P54791 1-529; P50874 1-479; P38826 …); assay: pull-down; His–MBP–Pch2 (1 μM as hexamer) or fragments (6 μM of 2-144) on amylose beads, 1 μM ORC added, 90 min on ice; 30 mM HEPES pH 7.5, 150 mM NaCl, 10 mM imidazole, 0.1% Tween-20, 10 mM MgCl2; Coomassie staining or Western blot (α-MBP, α-ORC); conditions: both partners purified
T4 construct: Orc1, budding yeast; as in m16; Orc2, budding yeast; Orc3, budding yeast; Orc4, budding yeast; Orc5, budding yeast; Orc6, budding yeast; as in m16, dephosphorylated (single band); also called dephosphorylated ORC; source: Tnao38 insect cells, purified, then treated with λ-phosphatase at 4°C overnight; copies: + + + + +
T4 sequence (P32833 whole entry, chain 2 of 4, the tested form may be a part): as the sequence (P32833 whole entry, chain 2 of 4, the tested form may be a part) above
T4 sequence (P54790 whole entry, chain 3 of 4, the tested form may be a part): as the sequence (P54790 whole entry, chain 3 of 4, the tested form may be a part) above
T4 sequence (P54791 whole entry, chain 4 of 4, the tested form may be a part): as the sequence (P54791 whole entry, chain 4 of 4, the tested form may be a part) above
T4 sequence (P38826 whole entry, chain 6 of 4, the tested form may be a part): as the sequence (P38826 whole entry, chain 6 of 4, the tested form may be a part) above

[3] = target: T2, His–Orc1 (subunit of the insect …); assay: cross-linking; XL-MS: 0.75 μM His–MBP–Pch2 with 1.5 μM His–ORC, 30 mM HEPES pH 7.5, 150 mM NaCl, 2 mM TCEP, 90 min at 4°C; 3 mM DSBU, 25°C, 1 h; MeroX, 2% FDR; conditions: both partners purified
[4] = target: the molecule itself; assay: SEC; single purified proteins: His–MBP–Pch2 (2 μM), His–MBP–Pch2-243-564 (2 μM), His–MBP–Pch2-2-144 (6 μM; Superdex 200 5/150 GL); 30 mM HEPES pH 7.5, 150 mM NaCl, 3% glycerol, 2 mM TCEP, 1 mM MgCl2
[5] = target: T5, ORC (Orc1-6, with Orc1 carrying a CBP tag) purified from budding yeast (budding yeast, UniProt P54784 1-914; P32833 1-620; P54790 1-616; P54791 1-529; P50874 1-479; P38826 …); assay: pull-down; ORC from budding yeast bound to calmodulin beads, His–MBP–Pch2 added for 1 h on ice; 30 mM HEPES pH 7.5, 200 mM NaCl, 2 mM CaCl2; with or without MgCl2 and ADP, ATP or ATP analogs; Coomassie staining; conditions: both partners purified
T5 construct: Orc1, budding yeast; Orc2, budding yeast; Orc3, budding yeast; Orc4, budding yeast; Orc5, budding yeast; Orc6, budding yeast; also called budding yeast ORC (CBP–Orc1); budding yeast–purified ORC; source: purified from α-factor–arrested vegetative budding yeast cells (yGV3358), concentrated on calmodulin beads; copies: + + + + +
T5 sequence (P32833 whole entry, chain 2 of 4): as the sequence (P32833 whole entry, chain 2 of 4, the tested form may be a part) above
T5 sequence (P54790 whole entry, chain 3 of 4): as the sequence (P54790 whole entry, chain 3 of 4, the tested form may be a part) above
T5 sequence (P54791 whole entry, chain 4 of 4): as the sequence (P54791 whole entry, chain 4 of 4, the tested form may be a part) above
T5 sequence (P38826 whole entry, chain 6 of 4): as the sequence (P38826 whole entry, chain 6 of 4, the tested form may be a part) above

His–MBP–Pch2 = target: B1; assay: cross-linking; XL-MS: 0.75 μM His–MBP–Pch2 with 1.5 μM His–ORC, 30 mM HEPES pH 7.5, 150 mM NaCl, 2 mM TCEP, 90 min at 4°C; 3 mM DSBU, 25°C, 1 h; MeroX, 2% FDR; conditions: both partners purified

Row | Binder | binding result [1] | binding result (6xHis–Hop1) | binding result [2] | binding result [3] | stoichiometry N [4] | binding result [5] | binding result (His–MBP–Pch2)
1 | His–MBP–Pch2-2-144 (domain or fragment, budding yeast, UniProt P38126 2-144, looked up, Pch2, budding yeast, part of the NH2-terminal domain; Monomer by SEC; also called minimal NH2-terminal fragment of Pch2; source: Tnao38 insect cells (baculovirus), purified (TALON, amylose, SEC); not shown: His, N-terminal, kept; MBP, N-terminal, kept) SYIVDLQVRGSSLRVIKCMFREDEQISSLHSGSDSKQNSNKKLGEFLNLLKAVVKRKLESFPKDRLKTSIITGQELMREGQGSIEIKDPPTEAQQHLIRSLAKVLLHQFSSINGKVNTVNEGQDNLFLSLFVKKISIEQQSTS | binds | – | – | – | – | – | –
2 | B1 | binds | binds | binds | binds | 6 | binds | –
3 | Orc5 (subunit of the insect cell–purified ORC) (natural protein, budding yeast, UniProt P50874 1-479, looked up, Orc5, budding yeast; Stood in the assays as a subunit of m16; source: Tnao38 insect cells, co-expressed, purified as part of His–ORC) MNVTTPEVAFREYQTNCLASYISADPDITPSNLILQGYSGTGKTYTLKKYFNANPNLHAVWLEPVELVSWKPLLQAIARTVQYKLKTLYPNIPTTDYDPLQVEEPFLLVKTLHNIFVQYESLQEKTCLFLILDGFDSLQDLDAALFNKYIKLNELLPKDSKINIKFIYTMLETSFLQRYSTHCIPTVMFPRYNVDEVSTILVMSRCGELMEDSCLRKRIIEEQITDCTDDQFQNVAANFIHLIVQAFHSYTGNDIFALNDLIDFKWPKYVSRITKENIFEPLALYKSAIKLFLSTDDNLSENGQGESAITTNRDDLENSQTYDLSIISKYLLIASYICSYLEPRYDASIFSRKTRIIQGRAAYGRRKKKEVNPRYLQPSLFAIERLLAIFQAIFPIQGKAESGSLSALREESLMKANIEVFQNLSELHTLKLIATTMNKNIDYLSPKVRWKVNVPWEIIKEISESVHFNISDYFSDIHE | – | – | – | – | – | – | binds
